In general, Kd refers to a measure of binding affinity in units of concentration. Low readings indicate tighter binding, high ones weaker binding.

Where “and” joins values, the source holds several entries; their conditions need not be identical. Identical values can stand only once. Where no end group is shown, it is not given here.

For this assay, the target named is bacterially expressed wild-type HRAS (human, UniProt P01112 1-189). Put plainly: ITC. In general terms: In ITC the heat of successive injections is recorded.
Sequence of bacterially expressed wild-type HRAS (P01112 whole entry): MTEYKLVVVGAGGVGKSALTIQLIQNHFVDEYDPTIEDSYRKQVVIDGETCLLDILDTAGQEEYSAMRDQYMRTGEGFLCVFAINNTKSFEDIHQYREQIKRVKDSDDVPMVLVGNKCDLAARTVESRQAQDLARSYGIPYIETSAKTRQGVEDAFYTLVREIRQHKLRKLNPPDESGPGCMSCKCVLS

For the molecule YRLEKQSEPNV-NH2 [S-016-1034 (CDRI-S-016-1034), 11-mer peptide derived from the RAS-Binding-Domain of mSIN1], the Kd was 9.54 µM and 8.95 µM.
